According to US20240109974A1 (SHANDONG SIMCERE BIOPHARMACEUTICAL, published 2024):
Where a chain is given by its changes, count along the chain named.

B1: 219-WT (antibody, V domains shown)
VH: EVQLQESGAELVRPGASVKLSCKASGYSFTNYWMNWVKQRPGQGLEWIGMIHPSDTETRLNQNFKDKATLTVDKSSSTSYMQLSSPTSEDSAVYYCARGEGLGAARSVSMDYWGQGTTVTVSS
VL: DILMTQSPSSLSASLGDRVTISCRASQDISNYLNWYQQKPDGTVKVLIYYTAILHSGVPSRFSGSGSGTDYSLTISNLEQEDIATYFCQQGNTLPWTFGGGTKLEIK
notes: Human-murine chimeric wild-type molecule
B2: 219-Hu3 (antibody, V domains shown)
VH: QVQLVQSGAEVKKPGSSVKVSCKASGYSFTNYWMNWVRQAPGQGLEWMGMIHPSDTETRLNQNFKDRVTITADKSTSTAYMELSSLRSEDTAVYYCARGEGLGAARSVSMDYWGQGTLVTVSS
VL: B1 VL with L3Q, L15V, S22T, V46L, N77S, E79Q, Q80P, I83F, G100Q, L104V
notes: also called VH5 + VL5
B3: 219-Hu1 (antibody, V domains shown)
VH: B2 VH with S16A, G44R, A72R, K74T, T76A
VL: B1 VL with L3Q, L15V, S22T, V46L, N77S, E79Q, Q80P, I83F, G100Q, L104V
notes: also called VH3 + VL5
B4: 219-Hu2 (antibody, V domains shown)
VH: B2 VH with R67K, V68A
VL: B1 VL with L3Q, L15V, S22T, V46L, N77S, E79Q, Q80P, I83F, G100Q, L104V
notes: also called VH4 + VL5
B5: 219-Hu5 (antibody, V domains shown)
VH: B2 VH with A72V
VL: B1 VL with L3Q, L15V, S22T, V46L, N77S, E79Q, Q80P, I83F, G100Q, L104V
notes: also called VH7 + VL5
B6: 219-Hu4 (antibody, V domains shown)
VH: B2 VH with R38K, M48I, R67K, V68A, I70L, A72V
VL: B1 VL with L3Q, L15V, S22T, V46L, N77S, E79Q, Q80P, I83F, G100Q, L104V
notes: also called VH6 + VL5
B7: 001-WT (antibody, V domains shown)
VH: EVQLQESGGGLVQPGGSLNLSCAASGFAFSTYDLSWVRQTPEKRLEWVAYINNGGISTYYSDTVKGRFTISRDNAKNTLYLQMSSLKSEDTAMYYCVRGPFYGSANYFDYWGQGTTVTVSS
VL: EIVMTQSPASLSLSVGETVTITCRTSESIYSNLPWYQQKQGKSPQLLVYDATKLAEGVPSRFSGSESGTQYSLKINSLQSEDFGTYYCQHFWVTPWTFGGGTKLEIK
notes: Human-murine chimeric wild-type molecule; also called human-murine chimeric antibody WT of #001
B8: 001-Hu5 (antibody, V domains shown)
VH: B7 VH with Q5V, N19R, T40A, E42G, R44G, S84N, K87R, S88A, M93V, T116L
VL: DIQMTQSPSSLSASVGDRVTITCRTSESIYSNLPWYQQKPGKSPKLLVYDATKLAEGVPSRFSGSGSGTDYTLTISSLQPEDFATYYCQHFWVTPWTFGQGTKVEIK
notes: Humanized form of #001; also called VH1 + VL4
B9: 001-Hu3 (antibody, V domains shown)
VH: B7 VH with Q5V, N19R, T40A, E42G, R44G, S84N, K87R, S88A, M93V, T116L
VL: B8 VL with S43A, V48I
notes: Humanized form of #001; also called VH1 + VL3
B10: 001-Hu1 (antibody, V domains shown)
VH: B7 VH with Q5V, N19R, T40A, E42G, R44G, S84N, K87R, S88A, M93V, T116L
VL: B8 VL with S43A, V48L
notes: Humanized form of #001; also called VH1 + VL1
B11: 001-Hu4 (antibody, V domains shown)
VH: EVQLVESGGGLVQPGGSLRLSCAASGFAFSTYDLSWVRQAPGKGLEWVAYINNGGISTYYSDTVKGRFTISRDNAKNSLYLQMNSLRAEDTAVYYCVRGPFYGSANYFDYWGQGTLVTVSS
VL: B8 VL
notes: Humanized form of #001; also called VH2 + VL4
B12: 001-Hu2 (antibody, V domains shown)
VH: B11 VH
VL: B8 VL with V48I, Y71F
notes: Humanized form of #001; also called VH2 + VL2

Tests used:
[1] = target: T1, Human TNFR2-His (Sino 10417-H08H) (human, UniProt P20333 23-257); assay: ELISA, plate coated with Human TNFR2-His, detection with anti-human IgG Fc-HRP [panel B]
T1 construct: Bought protein; also called recombinant human TNFR2 protein; not shown: His tag
T1 sequence (looked up): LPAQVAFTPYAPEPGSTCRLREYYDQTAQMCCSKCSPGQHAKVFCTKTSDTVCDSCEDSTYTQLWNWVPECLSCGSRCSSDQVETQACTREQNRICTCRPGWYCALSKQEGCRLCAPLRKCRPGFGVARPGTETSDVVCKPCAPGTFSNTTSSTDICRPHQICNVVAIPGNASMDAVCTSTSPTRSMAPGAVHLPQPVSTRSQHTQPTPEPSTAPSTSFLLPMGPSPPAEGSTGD
Procedure: (§1) The test humanized antibody against TNFR2 (as described in Example 1, the antibody was comprised of variable regions linked to IgG-Fc; the WT chimeric antibody also adopted the IgG-Fc structure) was subjected to 3.33-fold gradient dilution, loaded with 100 μl/well, and incubated with shaking at room temperature for 1.5 hours. The plate was washed, and then a working solution of murine anti-human IgG Fc-HRP (diluted at 1:10000) was added, loaded with 100 μl/well, and incubated with shaking at room temperature for 1.0 hour. The plate was washed again, and then the substrate TMB of HRP was added to develop colour. A stop solution was added to stop the reaction, and then a microplate reader (MD 13) was used to read the absorbance value. The binding curve of an antibody was drawn with antibody concentration as the abscissa and corresponding OD value as the ordinate, and fitted with four parameters (GraphPad Prism9) to calculate the EC50 value. The smaller the EC50 value, the stronger the binding ability of an antibody to human/cynomolgus monkey TNFR2. The binding effect of a humanized antibody was normalized to its corresponding human-murine chimeric antibody WT (see SEQ ID NOs: 38-43 for the sequence). The higher the percentage value, the better the binding effect of the humanized antibody. […]

[2] = target: T2, human TNFR2 on the surface of CHO-TNFR2 cells (human, UniProt P20333 23-461); assay: flow cytometry on CHO-TNFR2 cells; AUC against 219-WT
T2 construct: whole, on cells
T2 sequence (looked up): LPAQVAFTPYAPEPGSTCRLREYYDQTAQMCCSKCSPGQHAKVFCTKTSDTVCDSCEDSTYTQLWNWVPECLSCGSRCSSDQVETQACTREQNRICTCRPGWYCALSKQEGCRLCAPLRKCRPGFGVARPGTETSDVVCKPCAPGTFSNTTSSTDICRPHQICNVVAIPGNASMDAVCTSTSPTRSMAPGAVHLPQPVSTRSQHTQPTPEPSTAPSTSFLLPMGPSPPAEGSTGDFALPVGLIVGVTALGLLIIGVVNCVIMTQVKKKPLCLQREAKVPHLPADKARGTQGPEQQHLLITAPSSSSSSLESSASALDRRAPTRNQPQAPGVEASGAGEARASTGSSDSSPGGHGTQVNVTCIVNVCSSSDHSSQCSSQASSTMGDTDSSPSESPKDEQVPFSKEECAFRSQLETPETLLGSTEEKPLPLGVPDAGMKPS
Procedure: The transfected full-length plasmid of human TNFR2 was purchased from Sino Biological (Cat #HG10417-UT, NCBI Ref Seq: NM_001066.2). The experiment was conducted at a cell density within 80%. The cell medium was discarded; the cells were rinsed with PBS, and digested with 1 ml trypsin for 2 minutes; the digestion was stopped with a Ham's F12 complete medium containing 10% FBS, and then a cell suspension was made. The cell suspension was counted, and then an appropriate amount of cell suspension was centrifuged at 350×g; the supernatant was discarded; a corresponding volume of blocking solution (10% FBS+PBS) at a density of 1×10⁷ cells/ml was added to resuspend the cells, and the mixture was incubated at 4° C. for 30 minutes. After the incubation, the mixture was centrifuged at 350×g to remove the supernatant, and the cells were resuspended in a staining buffer (2% FBS+PBS) to a density of 2×10⁶ cells/ml, and spread onto a 96-well plate, with 50 μl of cell suspension added to each well for later use. The antibody was diluted with PBS for 10-fold gradient dilution from the highest concentration of 20 μg/m (twice the concentration); the diluted antibody was added to the well containing 50 μl of cell suspension, and placed on a microplate shaker for shaking at 500 rpm for 1 minute, so that the antibody was fully mixed with the cells; the mixture was incubated at 4° C. for 1 h. After the incubation, the cells were washed twice with the staining buffer, with 100 μl per well, and centrifuged at 350-g for 5 minutes, and the supernatant was discarded. The PE goat anti-Human IgG Fc antibody (ebioscience, Cat #12-4998-82) was diluted 250-fold with the staining buffer, with a volume of 100 μl per well added to the washed cell wells; the mixture was mixed evenly, and stained at 4° C. for 30 minutes. After the staining, similarly, the cells were washed twice with the staining buffer; finally, the cells were resuspended in 200 μl of staining buffer; signals were detected by a flow cytometer (Thermo Attune NxT). The stronger the signal, the stronger the binding ability of an antibody to TNFR2. The binding curve of an antibody was drawn with antibody concentration as the abscissa and corresponding mean fluorescence intensity (MFI) fold as the ordinate, and fitted with four parameters (GraphPad Prism9) to calculate the EC50 value.

[3] = target: T1, Human TNFR2-His (Sino 10417-H08H); assay: ELISA, plate coated with Human TNFR2-His, detection with anti-human IgG Fc-HRP [panel A]
Procedure: as §1

[4] = target: T3, Cynomolgus TNFR2-His (Sino 90102-C08H) (cynomolgus monkey, UniProt A0A2K5VET2 132-366); assay: ELISA, cynomolgus TNFR2-His coated; EC50 against 001-WT
T3 construct: Bought protein; also called cynomolgus monkey TNFR2; recombinant cynomolgus monkey TNFR2 protein; not shown: His tag
T3 sequence: T1 sequence (looked up) with S16G, S36P, P117Q, N164H, E210A, S216G, M223V
Procedure: The test humanized antibody against TNFR2 (as described in Example 1, the antibody was comprised of variable regions linked to IgG-Fc; the WT chimeric antibody also adopted the IgG-Fc structure) was subjected to 3.33-fold gradient dilution, loaded with 100 μl/well, and incubated with shaking at room temperature for 1.5 hours. The plate was washed, and then a working solution of murine anti-human IgG Fc-HRP (diluted at 1:10000) was added, loaded with 100 μl/well, and incubated with shaking at room temperature for 1.0 hour. The plate was washed again, and then the substrate TMB of HRP was added to develop colour. A stop solution was added to stop the reaction, and then a microplate reader (MD 13) was used to read the absorbance value. The binding curve of an antibody was drawn with antibody concentration as the abscissa and corresponding OD value as the ordinate, and fitted with four parameters (GraphPad Prism9) to calculate the EC50 value. The smaller the EC50 value, the stronger the binding ability of an antibody to human/cynomolgus monkey TNFR2. The binding effect of a humanized antibody was normalized to its corresponding human-murine chimeric antibody WT (see SEQ ID NOs: 38-43 for the sequence). The higher the percentage value, the better the binding effect of the humanized antibody. The results of binding of an anti-TNFR2 antibody to a human TNFR2 protein are shown in FIG. 1 and Table 4, and the results of binding of an anti-TNFR2 antibody to cynomolgus monkey TNFR2 are shown in FIG. 2 and Table 4.

| Binder | % Relative activity (Test antibody/WT antibody) [2] [%] | % Relative activity (WT antibody/test antibody) [4] [%] | also measured |
| --- | --- | --- | --- |
| B1 | – | – | EC50 (read off the curve) [1]: ~0.02 µg/mL |
| B2 | 96.4 | – | – |
| B3 | 110 | – | – |
| B4 | 103 | – | – |
| B5 | 93.3 | – | – |
| B6 | 95.6 | – | – |
| B7 | – | – | EC50 (read off the curve) [3]: ~0.01 µg/mL |
| B8 | – | 105 | – |
| B9 | – | 105 | – |
| B10 | – | 108 | – |
| B11 | – | 106 | – |
| B12 | – | 107 | – |
